{
  "source": "patent US20160102121A1",
  "about": "(UNIVERSITY OF NORTH CAROLINA AT CHAPEL HILL, published 2016)",
  "biological_target": "epithelial Na+ channel (ENaC) on human bronchial epithelial cultures (human, UniProt P37088 1-669; P51168 1-640; P51170 1-649)",
  "sequence (P37088 whole entry, chain 1 of 3)": "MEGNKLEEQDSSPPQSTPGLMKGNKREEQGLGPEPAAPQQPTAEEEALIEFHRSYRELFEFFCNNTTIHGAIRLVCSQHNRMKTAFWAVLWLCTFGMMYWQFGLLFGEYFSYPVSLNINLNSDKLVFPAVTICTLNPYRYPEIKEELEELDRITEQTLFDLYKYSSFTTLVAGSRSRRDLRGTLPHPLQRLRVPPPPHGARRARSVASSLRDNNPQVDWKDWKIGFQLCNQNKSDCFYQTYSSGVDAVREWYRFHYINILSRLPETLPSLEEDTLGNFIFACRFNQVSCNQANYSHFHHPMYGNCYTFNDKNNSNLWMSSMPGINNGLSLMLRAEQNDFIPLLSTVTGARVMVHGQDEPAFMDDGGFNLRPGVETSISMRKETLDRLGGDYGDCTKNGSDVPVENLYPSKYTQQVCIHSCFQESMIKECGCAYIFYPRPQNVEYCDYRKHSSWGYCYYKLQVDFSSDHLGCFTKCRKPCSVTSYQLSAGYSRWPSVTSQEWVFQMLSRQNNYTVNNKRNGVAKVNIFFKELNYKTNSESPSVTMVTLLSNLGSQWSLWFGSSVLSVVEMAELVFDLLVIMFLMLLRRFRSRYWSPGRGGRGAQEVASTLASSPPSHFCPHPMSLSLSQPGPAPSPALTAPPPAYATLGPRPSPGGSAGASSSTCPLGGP",
  "sequence (P51168 whole entry, chain 2 of 3)": "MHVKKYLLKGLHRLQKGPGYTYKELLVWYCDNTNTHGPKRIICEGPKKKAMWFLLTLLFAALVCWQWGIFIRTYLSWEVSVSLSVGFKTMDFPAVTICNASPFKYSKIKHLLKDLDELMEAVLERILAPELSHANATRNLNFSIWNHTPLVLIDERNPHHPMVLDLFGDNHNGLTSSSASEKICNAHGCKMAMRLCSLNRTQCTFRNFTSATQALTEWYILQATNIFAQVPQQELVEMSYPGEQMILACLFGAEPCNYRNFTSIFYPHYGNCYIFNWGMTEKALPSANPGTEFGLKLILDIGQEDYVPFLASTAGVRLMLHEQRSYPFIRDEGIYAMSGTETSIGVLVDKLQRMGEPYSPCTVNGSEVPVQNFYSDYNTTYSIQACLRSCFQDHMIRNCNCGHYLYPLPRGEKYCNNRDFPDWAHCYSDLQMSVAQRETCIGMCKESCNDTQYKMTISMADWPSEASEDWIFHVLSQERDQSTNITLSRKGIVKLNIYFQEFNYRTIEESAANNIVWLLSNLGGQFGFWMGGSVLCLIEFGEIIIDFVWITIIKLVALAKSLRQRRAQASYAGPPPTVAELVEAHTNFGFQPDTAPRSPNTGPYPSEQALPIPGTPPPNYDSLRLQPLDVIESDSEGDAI",
  "sequence (P51170 whole entry, chain 3 of 3)": "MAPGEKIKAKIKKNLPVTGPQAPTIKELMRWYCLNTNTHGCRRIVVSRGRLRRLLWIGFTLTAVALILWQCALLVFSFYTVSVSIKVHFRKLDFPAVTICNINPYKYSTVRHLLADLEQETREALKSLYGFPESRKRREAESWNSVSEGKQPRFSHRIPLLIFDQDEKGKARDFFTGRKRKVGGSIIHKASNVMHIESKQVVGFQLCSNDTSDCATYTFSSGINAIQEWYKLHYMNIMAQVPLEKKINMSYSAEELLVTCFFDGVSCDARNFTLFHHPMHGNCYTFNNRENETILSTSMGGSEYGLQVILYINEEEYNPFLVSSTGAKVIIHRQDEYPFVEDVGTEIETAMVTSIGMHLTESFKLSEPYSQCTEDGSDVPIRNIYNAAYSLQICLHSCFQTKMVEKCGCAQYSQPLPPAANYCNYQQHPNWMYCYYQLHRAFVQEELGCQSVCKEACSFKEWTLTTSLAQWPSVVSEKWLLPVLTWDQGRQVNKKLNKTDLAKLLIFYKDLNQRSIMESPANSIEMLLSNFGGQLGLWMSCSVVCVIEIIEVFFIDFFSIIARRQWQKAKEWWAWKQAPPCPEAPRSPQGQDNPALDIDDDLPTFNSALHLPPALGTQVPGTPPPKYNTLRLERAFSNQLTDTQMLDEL",
  "assay": "cell-based or functional assay",
  "note": "Where no end group is shown, it is not given here. [ ]: non-standard residue; d: D form. Nle = CCCC[C@H](N)C(=O)O",
  "data": [
    {"binder": "[dA][dA]LP[Nle]PLDQT[dA][dA]", "note": "[aaLPNlePLDQTaa (SEQ ID NO:5)]", "values": [
      {"measurement": "IC50, dose response on airway cells (ASL height)", "value": 30, "unit": "nM"}
    ]}
  ]
}
